Numbering of substitutions follows the chain as printed.
Legend:
[1] = biological target: T1, HD-PTP(1–361;T145K) (human, UniProt Q9H3S7 1-361, T145K); assay: ITC
T1 sequence: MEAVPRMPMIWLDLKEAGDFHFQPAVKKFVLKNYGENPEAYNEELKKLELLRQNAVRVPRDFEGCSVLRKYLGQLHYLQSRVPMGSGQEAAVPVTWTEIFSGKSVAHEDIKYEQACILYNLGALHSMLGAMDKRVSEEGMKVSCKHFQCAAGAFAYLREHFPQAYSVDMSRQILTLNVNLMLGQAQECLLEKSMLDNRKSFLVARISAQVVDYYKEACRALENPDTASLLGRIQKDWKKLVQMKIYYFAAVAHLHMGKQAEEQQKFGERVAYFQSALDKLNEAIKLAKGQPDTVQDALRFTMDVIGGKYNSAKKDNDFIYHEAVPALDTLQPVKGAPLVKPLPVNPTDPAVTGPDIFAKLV

[2] = biological target: T2, HD-PTP(1–361;T145R) (human, UniProt Q9H3S7 1-361, T145R); assay: ITC
T2 sequence: T1 sequence with K145R

B1: CHMP4B(207–224) (peptide)
peptide: KEEEDDDMKELENWAGSM
Binder B1 has a Kd [1] of 4.02 µM and a Kd [2] of 3.89 µM.

From paper PMC4751086 (2016)
